Data: patent publication US20180094053A1 (XOMA US, published 2018)
Where two headings read alike, the source gives them in different places.

T1: Mouse IL-2 (mouse, UniProt P04351 21-169)
T1 sequence (looked up): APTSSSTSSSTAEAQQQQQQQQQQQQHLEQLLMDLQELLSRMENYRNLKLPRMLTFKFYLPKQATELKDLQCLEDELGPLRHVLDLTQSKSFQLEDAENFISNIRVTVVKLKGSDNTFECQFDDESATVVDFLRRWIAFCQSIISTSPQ

T2: Rabbit IL-2 (rabbit, UniProt O77620 21-153, limits assumed)
T2 sequence (looked up): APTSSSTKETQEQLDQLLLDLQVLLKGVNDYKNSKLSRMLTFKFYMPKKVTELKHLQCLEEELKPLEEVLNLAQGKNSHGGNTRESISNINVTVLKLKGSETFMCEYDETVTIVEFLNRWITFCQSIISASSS

T3: Rat IL-2 (rat, UniProt P17108 21-155)
T3 sequence (looked up): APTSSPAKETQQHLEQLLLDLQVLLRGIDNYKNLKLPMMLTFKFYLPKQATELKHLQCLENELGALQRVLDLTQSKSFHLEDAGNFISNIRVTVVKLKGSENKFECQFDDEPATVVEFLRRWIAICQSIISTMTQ

T4: CHOk1-IL2Ralpha
T4 construct: clone number not given; also called CHO/Rα; CHO/IL-2 Rα
T4 chain: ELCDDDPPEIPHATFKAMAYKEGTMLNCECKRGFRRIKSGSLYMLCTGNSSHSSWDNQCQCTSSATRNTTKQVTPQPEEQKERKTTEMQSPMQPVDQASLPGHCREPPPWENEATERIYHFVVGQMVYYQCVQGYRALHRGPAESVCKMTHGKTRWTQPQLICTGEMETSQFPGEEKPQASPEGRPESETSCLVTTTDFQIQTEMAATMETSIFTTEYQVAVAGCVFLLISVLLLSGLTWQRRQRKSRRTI

T5: human IL-2 Rβγ (IL-2 Rβ and γc) on cells (human, UniProt P14784 27-551; P31785 23-369)
T5 construct: whole, on cells; on CD25-depleted human primary NK cells in the pSTAT5 assay; also called CHO/Rβγ; CHO/IL-2 Rβγ (#20-21)
T5 sequence (looked up) 1: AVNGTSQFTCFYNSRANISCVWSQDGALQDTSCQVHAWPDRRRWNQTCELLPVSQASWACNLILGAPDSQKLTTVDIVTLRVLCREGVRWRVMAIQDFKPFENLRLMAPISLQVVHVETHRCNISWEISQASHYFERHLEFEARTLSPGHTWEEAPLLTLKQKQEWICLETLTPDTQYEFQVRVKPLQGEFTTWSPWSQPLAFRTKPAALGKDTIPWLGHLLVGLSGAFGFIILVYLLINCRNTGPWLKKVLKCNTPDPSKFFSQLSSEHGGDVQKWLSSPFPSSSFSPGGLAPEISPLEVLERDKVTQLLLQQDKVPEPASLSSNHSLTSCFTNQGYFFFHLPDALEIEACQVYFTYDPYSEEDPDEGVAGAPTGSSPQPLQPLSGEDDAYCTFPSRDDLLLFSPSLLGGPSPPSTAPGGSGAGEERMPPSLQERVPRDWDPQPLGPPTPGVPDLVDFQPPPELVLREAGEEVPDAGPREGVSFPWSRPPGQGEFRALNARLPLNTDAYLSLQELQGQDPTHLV
T5 sequence (looked up) 2: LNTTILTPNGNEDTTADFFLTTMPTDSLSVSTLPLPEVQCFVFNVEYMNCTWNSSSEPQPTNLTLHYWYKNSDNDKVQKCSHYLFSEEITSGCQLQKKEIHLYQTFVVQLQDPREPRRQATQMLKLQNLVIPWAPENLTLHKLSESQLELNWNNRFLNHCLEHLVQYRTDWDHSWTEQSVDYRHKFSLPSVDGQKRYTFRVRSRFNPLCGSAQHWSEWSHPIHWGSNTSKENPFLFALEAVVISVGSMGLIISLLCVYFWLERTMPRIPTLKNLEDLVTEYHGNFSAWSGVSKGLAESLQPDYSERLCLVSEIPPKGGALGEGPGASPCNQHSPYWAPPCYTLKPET


Legend:
[1] = target: T6, Recombinant human IL-2 (human, UniProt P60568 21-153); assay: cell-based or functional assay
[2] = target: T1, Mouse IL-2; assay: listed for comparison in the SPR species cross-reactivity table
[3] = target: T6, Recombinant human IL-2; assay: listed for comparison in the SPR table; method for this antibody not described
[4] = target: T6, Recombinant human IL-2; assay: cell-based or functional assay; remark: listed apart in the source
[5] = target: T6, Recombinant human IL-2; assay: SPR (Biacore 4000), IgG captured on anti-human IgG Fc, rhIL-2 0.11-10 nM
Protocol: (§1) Antibody affinities were measured by SPR using the Biacore 4000 with a standard capture methodology. Briefly, anti-human IgG (Fc specific) from an anti-human antibody capture kit (Biacore) was immobilized onto spots 1, 2, 4, and 5 of all four flow cells of a CM-5 sensor chip by amine coupling according to the manufacturer's instructions. Running buffer was HBS-EP+ with 1% BSA. […] Data were analyzed using the Biacore 4000 Evaluation software.

[6] = target: T6, Recombinant human IL-2; assay: cell-based or functional assay; remark: listed apart in the source
[7] = target: T6, Recombinant human IL-2; assay: cell-based or functional assay; remark: listed apart in the source
[8] = target: T6, Recombinant human IL-2; assay: cell-based or functional assay; remark: listed apart in the source
[9] = target: T2, Rabbit IL-2; assay: SPR (Biacore 4000), IgG captured on anti-human IgG Fc, IL-2 30 nM to 1 nM; affinity estimate
Protocol: as §1
(§2) These sequences were imported into vector NTI® (Lifetech) and aligned using the alignx tool.

[10] = target: T3, Rat IL-2; assay: as above
Protocol: as §1, §2

[11] = target: T1, Mouse IL-2; assay: as above
Protocol: as §1, §2

[12] = target: T6, Recombinant human IL-2; assay: cell-based or functional assay; remark: listed apart in the source
[13] = target: T4, CHOk1-IL2Ralpha; assay: flow cytometry, IgG binding (MFI); antibody titrated on CHOk1-IL2Ralpha cells without IL2
Protocol: (§3) After phage-derived antibody fragments were reformatted into full-length human IgGs, the purified antibodies were screened on CHO/Rα, CHO/Rβ, CHO/Rβγ, and parental CHO-K1 cells grown and stained as described above. […] This was allowed to incubate at 4° C. for 1 to 1.5 hours. Bound antibody was detected by the addition of anti-human heavy chain and light chain (Jackson Immuno Research #109-136-088) at 1:1000 and incubating at 4° C. for 30 minutes to 1 hour. Samples were analyzed using BD FACs Canto flow cytometer.

[14] = target: T5, human IL-2 Rβγ (IL-2 Rβ and γc) on cells; assay: flow cytometry, IgG binding (MFI); antibody titrated on CHOk1-IL2Rbeta-gamma (20-21) cells without IL2
Protocol: as §3

[15] = target: T3, Rat IL-2; assay: SPR (Biacore 4000), IgG captured on anti-human Fc, IL-2 injected
[16] = target: T1, Mouse IL-2; assay: as above

Molecule | Fold EC50 shift of IL-2-induced proliferation, CTLL-2 (muRαβγ) [4] | Kd [5] | koff [5] | kon [5] | pSTAT5a,b Ratio of EC50s (Rαβγ/Rβγ), human cells [6] | pSTAT5a,b fold EC50 shift, Human Primary NK cells (huRβγ) [6] | pSTAT5a,b fold EC50 shift, NK92 (huRαβγ) [6] | EC50 of IL-2-induced pSTAT5a,b in CD25-depleted human primary NK cells with 100 nM antibody [7] | EC50 of IL-2-induced pSTAT5a,b in NK-92 cells with 100 nM antibody [7] | EC50 of IL-2-induced pSTAT5a,b in mouse primary NK cells with 100 nM antibody [7] | Fold EC50 shift of IL-2-induced proliferation, BaF3/IL-2 HuRβγ [8] | Fold EC50 shift of IL-2-induced proliferation, NK92 (huRαβγ) [8] | Ratio (huRαβγ/Rβγ) of fold EC50 shifts, proliferation [8] | Kd [9] | Kd [10] | Kd [11] | pSTAT5a,b Ratio of EC50s (Rαβγ/Rβγ), murine cells [12] | pSTAT5a,b fold EC50 shift, CTLL-2 (muRαβγ) [12] | pSTAT5a,b fold EC50 shift, Mouse Primary NK cells (muβγ) [12] | binding result [13] | further results
MAB602 (antibody) | – | – | – | – | – | – | – | – | – | – | – | – | – | – | – | – | – | – | – | – | EC50 of IL-2-induced pSTAT5a,b in NK-92 cells with 100 nM antibody [1]: 900 pM; EC50 of IL-2-induced pSTAT5a,b in mouse primary NK cells with 100 nM antibody [1]: 361 pM; Kd [2]: 10 nM; Kd [3]: 0.12 nM
XPA.92.041 (antibody, V domains shown, Tested as purified full-length human IgG) VH: EVQLVQSGAEVKKPGESLKISCKGSGYNFDTYWIGWVRQMPGRGLEWMGTIYPADSDTRYSPSFQGQVTTSADKSISTAYLQWGSLRASDTAMYYCARFSSSAYDIWGQGTMVTVSS VL: SYELTQPPSVSVSPGQTARITCSGDALPRQFAYWYQQKPGQAPVLVIYKDTERPSGIPERFSGSSSGTTVTLTISGVQAEDEADYYCQSADSSGTYHVFGGGTQLTVLG | 58 fold | 0.058 nM | 0.00032 s⁻¹ | 5.6e+06 M⁻¹ s⁻¹ | 35 | 35 fold | 1230 fold | 4520 pM | 1150 pM | 1350 pM | 3.9 fold | 35 fold | 9 | 0.5 nM | 1 nM | 40 nM | 34 | 404 fold | 12 fold | no binding | binding result [14]: no binding
XPA.92.042 (antibody, V domains shown, Tested as purified full-length human IgG) VH: EVQLVQSGTEVKKAGDSLKISCKGSGYNFDTYWIGWVRQMPGRGLEWMGTIYPADSDTRYSPSFQGQVTMSADKSISTAYLQWGSLRASDTAMYYCARFSSSAYDIWGQGTMVTVSS VL: SYELTQPPSVSVSPGQTARITCSGDALPRKFAYWYQQKSGQAPVLVIYQDTKRPSGIPERFSGSSSGTTVTLTISDVQAEDDADYYCQSADRSDSYVFGAGTKLTVLG | 156 fold | 0.028 nM | 0.00025 s⁻¹ | 8.9e+06 M⁻¹ s⁻¹ | 45 | 41 fold | 1860 fold | 5120 pM | 1700 pM | 1660 pM | 5 fold | 52 fold | 10 | 0.6 nM | 6 nM | 10 nM | 57 | 793 fold | 14 fold | no binding | binding result [14]: no binding
XPA.92.099 (antibody, V domains shown, Tested as purified full-length human IgG; also called mAb99; clone 99) VH: QVQLVESGGGLVKPGRSLRLSCAASGFTFNRYAMSWVRQAPGKGLEWVAMISFDGGNQYYTDSVSGRFTISRDNSKTTLFLQMDSLRTEDTAVYYCVRSPAGDWVAYFDYWGQGTLVTVSS VL: DIQMTQSPSSLSASIGDRVTIPCQASEDISNHLSWYQQKPGKAPKPLIFDASDLETGVPSRFSGSGSGTDFALTISSLRPDDFATYYCHQYHDYPSYTFGHGTKLEIKR | 54 fold | 0.044 nM | 0.00024 s⁻¹ | 5.5e+06 M⁻¹ s⁻¹ | 21 | 24 fold | 495 fold | 3050 pM | 463 pM | – | 2.4 fold | 22 fold | 9 | 0.09 nM | – | – | 17 | 293 fold | 17 fold | – | binding result [15]: no binding (tested: IL-2 injected from 30 nM to 1 nM); binding result [16]: no binding (tested: IL-2 injected from 30 nM to 1 nM)
XPA.92.019 (antibody, V domains shown, Tested as purified full-length human IgG; also called mAb19) VH: EVQLVESGGGLVQPGRSLRLSCAASGFTFSYYGMHWVRQAPGKGLEWVADISNDGSNKYYADSVKGRFTISRDNSKTTLYLQMNSLRPEDTAVYYCATPYYDSSGLDYWGQGTLVTVSS VL: SYELTQPPSVSVSPGQTARITCSGDALPKRFAYWYQQKAGQAPVLVIYEDNKRPSGIPETLSGSSSGTTATLTISGAQEEDEADYYCYSTDNTGGLWVFGGGTKLTVLG | 130 fold | 0.0095 nM | 3.4e-05 s⁻¹ | 3.7e+06 M⁻¹ s⁻¹ | 24 | 40 fold | 966 fold | 5040 pM | 900 pM | 1720 pM | 5.2 fold | 33 fold | 6 | 0.2 nM | – | 100 nM | 35 | 523 fold | 15 fold | no binding | –
